How the values were obtained:
[1] = biological target: T1, human Flag-tagged soluble TWEAK (amino acids 106-249) (human, UniProt O43508 106-249); test: receptor interaction ELISA: Flag-TWEAK preincubated with antibody, then on coated human Fn14:Fc (competitor m21)
T1 construct: The sentence gives amino acids 106-249 without naming the entry; also called Human TWEAK; not shown: Flag tag
T1 sequence: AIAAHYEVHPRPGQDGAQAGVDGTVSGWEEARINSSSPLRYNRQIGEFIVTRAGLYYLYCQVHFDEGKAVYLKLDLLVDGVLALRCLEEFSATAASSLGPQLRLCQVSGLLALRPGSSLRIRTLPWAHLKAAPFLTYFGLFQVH
Procedure: (§1) 96-well Maxisorp® plates (Nunc) were coated with 100 μl 1 μg/ml human Fn14:Fc (extracellular domain of human Fn14 (amino acids 1-75 of SEQ ID NO: 98) fused to Fc portion of human IgG1) in PBS per well for 1.5 h at room temperature and blocked with a solution of 5% FBS in PBS for 30 minutes at room temperature under shaking. […] After washing the Fn14-coated plate once with wash buffer (0.1% Tween® 20 in PBS), 100 μl of the TWEAK-antibody solution were transferred to each well and the plate was incubated for 1 h at room temperature, followed by four washes with wash buffer. Wells were filled with 100 μl of anti-FLAG-HRP detection antibody, diluted 1:5000 in blocking buffer, and incubated for 1 h at room temperature. After four more wash steps, the signal was developed by addition of 100 μl 3,3,5,5-Tetramethylbenzidine (TMB) solution for approximately ten minutes. The reaction was stopped by adding 100 μl of 1 N HCl, and absorbance measured at 450 nm (reference wavelength 620 nm).

[2] = biological target: T2, human Tweak-Fc (human, UniProt O43508 106-249, limits assumed); test: SPR (BIAcore T100), TWEAK ligand (Tweak-Fc) amine-coupled on C1 chip, antibody as analyte, 25 C
T2 construct: not shown: Fc part
T2 sequence: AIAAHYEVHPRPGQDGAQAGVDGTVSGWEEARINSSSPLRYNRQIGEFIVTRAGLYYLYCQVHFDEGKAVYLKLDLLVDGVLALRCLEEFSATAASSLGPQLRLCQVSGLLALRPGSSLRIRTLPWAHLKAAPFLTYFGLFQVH
Procedure: (§2) Around 100 resonance units (RU) of TWEAK was immobilized on the C1 chip surface at pH 5.0 using an amine coupling kit supplied by the GE Healthcare. The sample and system buffer was PBS-T (10 mM phosphate buffered saline including 0.05% Tween20) pH 7.4. Association was measured by injection the bispecific antibody in various concentrations in solution for 3 min at a flow of 30 μl/min starting with 50 nM in 1:1 dilutions. The dissociation phase was monitored for up to 10 min and triggered by switching from the sample solution to running buffer. The surface was regenerated by three times 30 sec. washing with a 3M MgCl2 solution at a flow rate of 30 μl/min. Bulk refractive index differences were corrected by subtracting the response obtained from a blank-coupled surface. Blank injections are also subtracted (=double referencing). For calculation of apparent KD and other kinetic parameters the Langmuir 1:1 model was used.

[3] = biological target: T2, human Tweak-Fc; test: SPR (BIAcore T100), TWEAK ligand (Tweak-Fc) amine-coupled on C1 chip, antibody as analyte, 25 C, apparent KD, 1:1 model
[4] = biological target: T2, human Tweak-Fc; test: SPR (BIAcore T100), TWEAK ligand (Tweak-Fc) amine-coupled on C1 chip, antibody as analyte, 25 C, 1:1 model
Procedure: as §2

[5] = biological target: T3, Biotinylated human soluble TWEAK (amino acids 99-249 of SEQ ID NO: 68) (human, UniProt O43508 99-249, biotinylated); test: SPR (Biacore), biotinylated soluble TWEAK on streptavidin chip, 25 C
T3 construct: also called Human TWEAK
T3 sequence: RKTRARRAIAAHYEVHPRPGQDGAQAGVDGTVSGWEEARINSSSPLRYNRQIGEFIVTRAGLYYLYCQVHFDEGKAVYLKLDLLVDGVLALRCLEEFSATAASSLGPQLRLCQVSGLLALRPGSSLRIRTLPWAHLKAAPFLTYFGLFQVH
Procedure: (§3) A Biacore 2000 instrument was used with a Biacore streptavidin coated sensor mounted into the system. The system buffer HBS-ET (10 mM HEPES pH 7.4, 150 mM NaCl, 1 mM EDTA, 0.05% Tween® 20) was used at a flow rate of 100 μl/min. The sample buffer was the system buffer. Biotinylated human soluble TWEAK (amino acids 99-249 of SEQ ID NO: 68) and biotinylated murine soluble TWEAK (amino acids 81-225 of SEQ ID NO: 69) was immobilized on different flow cells on the SA sensor at 150 RU each. The flow cell FC1 was used as a blank reference cell. Each antibody was injected into the system as an analyte at 100 nM at 100 μl/min for 2 min association time. The dissociation of the immunecomplexes were monitored for 5 min. The sensor surface was washed with HBS-ET for 10 seconds and regenerated using 2×2 minutes injections with 10 mM glycine pH 2.25. This procedure was done at 25° C. The kinetically rate limiting step of the complex dissociation phase in the interval [240 s-300 s] was taken to calculate the dissociation rate kd [1/s] (Biacore Evaluation Software 4.0). According to the equation t1/2 diss=ln(2)/(60×kd), the half-life of the immunocomplexes in minutes was calculated.

[6] = biological target: T4, Recombinant human TWEAK (R&D Systems; Cat. #1090-TW/CF) (human, UniProt O43508 97-249, limits assumed); test: cell-based or functional assay
T4 sequence: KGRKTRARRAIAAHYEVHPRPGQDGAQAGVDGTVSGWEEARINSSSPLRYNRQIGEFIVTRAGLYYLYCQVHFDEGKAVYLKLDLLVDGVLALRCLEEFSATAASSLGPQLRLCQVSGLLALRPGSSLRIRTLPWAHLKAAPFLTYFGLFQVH

[7] = biological target: T5, Human recombinant soluble TWEAK (Example 6) (human, UniProt O43508 99-249, limits assumed); test: cell-based or functional assay
T5 sequence: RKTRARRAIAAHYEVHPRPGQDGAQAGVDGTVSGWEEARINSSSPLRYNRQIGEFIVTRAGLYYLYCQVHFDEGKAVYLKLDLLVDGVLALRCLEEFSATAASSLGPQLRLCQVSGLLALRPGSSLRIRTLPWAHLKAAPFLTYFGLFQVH

[8] = biological target: T3, Biotinylated human soluble TWEAK (amino …); test: SPR (Biacore), biotinylated soluble TWEAK on streptavidin chip, 37 C
[9] = biological target: T6, Mouse soluble TWEAK (untagged, Example 5) (mouse, UniProt O54907 105-249, limits assumed); test: receptor interaction ELISA: mouse soluble TWEAK preincubated with antibody, then on coated mouse Fn14:Fc (competitor m22)
T6 construct: also called Murine TWEAK
T6 sequence: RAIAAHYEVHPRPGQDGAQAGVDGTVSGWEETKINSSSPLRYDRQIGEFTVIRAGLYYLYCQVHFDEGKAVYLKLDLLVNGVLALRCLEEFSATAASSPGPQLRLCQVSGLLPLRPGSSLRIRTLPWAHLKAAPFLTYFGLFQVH
Procedure: (§4) Briefly, Maxisorp plates were coated with mouse Fn14:Fc (extracellular domain of mouse Fn14 (amino acids 1-75 of SEQ ID NO: 98) fused to Fc portion of human IgG1) as described above for human Fn14:Fc, followed by blocking and washing. […] After 1 h of incubation at room temperature and four washes, biotinylated anti-mouse TWEAK antibody at 125 ng/ml in blocking buffer was added for 1 h at room temperature, followed by another four wash steps. The TWEAK antibody was detected by incubation with streptavidin-HRP, diluted 1:5000 in blocking buffer, for 30 minutes at room temperature. Signal was developed and absorbance measured as described above.

[10] = biological target: T7, Biotinylated TWEAK (Example 7) (Homo sapiens (Human), UniProt O43508 99-249, Biotinylated (sites not given), captured on a streptavidin chip. The active form is a soluble homotrimer; one protomer is given.); test: Biacore crossblocking on immobilised biotinylated TWEAK; antibody 2 injected after saturating antibody 1 = TW-301chi (competitor m4), 100 nM each
T7 sequence: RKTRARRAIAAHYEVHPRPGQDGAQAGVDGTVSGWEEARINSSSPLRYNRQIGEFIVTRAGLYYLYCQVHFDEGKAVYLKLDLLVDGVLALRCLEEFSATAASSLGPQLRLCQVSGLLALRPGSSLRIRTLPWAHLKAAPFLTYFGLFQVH
Procedure: (§5) Because of the individual biochemical properties of the TWEAK protein another method had to be developed using TWEAK as ligand. Biotinylated TWEAK was immobilized on the streptavidin-coated chip surface and epitope coverage of consecutively injected antibodies (antibody 1) was measured. The aim was to detect the relative binding levels of a secondary antibody (antibody 2) in the presence of an already bound primary antibody. From these relative binding levels a quotient was calculated (Ab2/Ab1, molar ratio given in %, table 3).
(§6) 5 nM of biotinylated TWEAK was immobilized at 20 μl/min for 1 min on a streptavidin coated sensor flow cell. Primary and secondary mAbs were consecutively injected at 10 μl/min for 4 min into the system at 100 nM each until saturation of the respective TWEAK epitopes was achieved. As a reference an SA coated flow cell was used.

[11] = biological target: T5, Human recombinant soluble TWEAK …; test: cell-based or functional assay; remark: listed apart in the source
[12] = biological target: T7, Biotinylated TWEAK (Example 7); test: Biacore crossblocking on immobilised biotinylated TWEAK; antibody 2 injected after saturating antibody 1 = TW-305chi (competitor m6), 100 nM each
Procedure: as §5, §6

[13] = biological target: T3, Biotinylated human soluble TWEAK (amino …); test: SPR (Biacore 2000), biotinylated soluble TWEAK on streptavidin chip, antibody 100 nM as analyte, 25 C
Procedure: as §3

[14] = biological target: T7, Biotinylated TWEAK (Example 7); test: Biacore crossblocking on immobilised biotinylated TWEAK; antibody 2 injected after saturating antibody 1 = TW-304chi (competitor m5), 100 nM each
Procedure: as §5, §6

[15] = biological target: T6, Mouse soluble TWEAK (untagged, Example …); test: receptor interaction ELISA: mouse soluble TWEAK 4 ng/ml preincubated with antibody, then on coated mouse Fn14:Fc (competitor m22)
Procedure: as §4

[16] = biological target: T1, human Flag-tagged soluble TWEAK (amino …); test: receptor interaction ELISA: Flag-TWEAK 2.5 ng/ml preincubated with antibody, then on coated human Fn14:Fc (competitor m21)
Procedure: as §1

[17] = biological target: T2, human Tweak-Fc; test: SPR (BIAcore T100), TWEAK ligand (Tweak-Fc) amine-coupled on C1 chip, Fab as analyte, 25 C, apparent KD, 1:1 model
Procedure: as §2

[18] = biological target: T2, human Tweak-Fc; test: SPR (BIAcore T100), TWEAK ligand (Tweak-Fc) amine-coupled on C1 chip, Fab as analyte, 25 C, 1:1 model
[19] = biological target: T2, human Tweak-Fc; test: SPR (BIAcore T100), TWEAK ligand (Tweak-Fc) amine-coupled on C1 chip, Fab as analyte, 25 C

B1: Humanized <TWEAK> 305- antibody 27 (antibody, V domains shown)
VH: QVQLVQSGAEVKKPGSSVKVSCKASGFDFSTYYMSWVRQAPGQGLEWMGTVYVRQGTTYYASWLNGRVTITADESTSTAYMELSSLRSEDTAVYYCARGGYNYDDAFVIWGQGTLVTVSS
VL: DIQMTQSPSSVSASVGDRVTITCQASQNIYSNLAWYQQKPGKAPKLLIYTASYLASGVPSRFSGSGSGTDYTLTISSLQPEDFATYYCQTAYYNSRPDTVAFGGGTKVEIK
- IC50 [1]: 2.3 ng/mL
- T½ [2]: 3.37 h
- Kd [3]: 0.0252 nM
- koff [4]: 5.71e-05 s⁻¹
- kon [4]: 2.27e+06 M⁻¹ s⁻¹
- Biacore t/2 diss. [min] 25° C. human [5]: 110 min
- IC50 (nM) per valency, Tweak induced HFLS proliferation (CellTiter Glo) [6]: 0.152 nM
- Inhibition of IL8-Secretion [ng/ml] (A375 cells) [7]: 197 ng/mL
- Biacore t/2 diss. [min] 37° C. human [8]: 147 min
- IC50 [9]: 8.2 ng/mL

B2: <TWEAK> 301chi (antibody, human IgG1, kappa, V domains shown)
VH: QSLEESGGGLVKPGASLTLTCTASGFTFNANYWICWVRQAPGKGLEWIACIYGGGNSGAYYASWATGRFTISRTSSTTVTLQMTSLTAADTATYFCARGPISRDLWGPGTLVTVSL
VL: DVVMTQTPASVSEPVGGTVTIKCQASQSIYSSLAWYQQKPGQPPKLLIYDAFDLASGVSSRFTGSGSGTQFTLTISDLECADAATYYCQSTDYGNSWDGNPFGGGTEVVVTR
- MR % (Ab2/Ab1, molar ratio) [10]: 0%
- Inhibition of IL-8 Secretion IC50 [ng/ml] (A375 cells) [11]: 121 ng/mL
- MR % (Ab2/Ab1, molar ratio) [12]: 0%
- t/2 diss [min] 25° C. [13]: 110 min
- MR % (Ab2/Ab1, molar ratio) [14]: 0%
- IC50 [15]: 6.4 ng/mL
- IC50 [16]: 2.8 ng/mL

B3: <TWEAK>305 (antibody 27) -Fab (Fab, V domains shown)
VH: QVQLVQSGAEVKKPGSSVKVSCKASGFDFSTYYMSWVRQAPGQGLEWMGTVYVRQGTTYYASWLNGRVTITADESTSTAYMELSSLRSEDTAVYYCARGGYNYDDAFVIWGQGTLVTVSS
VL: DIQMTQSPSSVSASVGDRVTITCQASQNIYSNLAWYQQKPGKAPKLLIYTASYLASGVPSRFSGSGSGTDYTLTISSLQPEDFATYYCQTAYYNSRPDTVAFGGGTKVEIK
- Kd [17]: 0.015 nM
- koff [18]: 7.09e-05 s⁻¹
- kon [18]: 4.72e+06 M⁻¹ s⁻¹
- T½ [19]: 2.72 h

Reference: US20150132307A1 (Hoffmann-La Roche, published 2015)
